Measured values reported in US12618835B2, “Multiplex microelectrode array for detection of proteases as biomarkers” (Kansas State University Research Foundation, priority 2021, dated 2026).
“Also recorded” adds a separate entry of the source. Where no end group is shown, it is not given here. [ ]: non-standard residue; d: D form. The star is where a group is joined. aminomethylferrocene = [Fe+2].c1cc[c-](CN*)c1.c1cc[cH-]c1; Ava = NCCCCC(=O)O

How the values were obtained:
cathepsin B [1] = target: T1, cathepsin B (Homo sapiens, UniProt P07858); assay: Screening of peptide-Fc substrates for cathepsin B (electrochemical measurements, fluorogenic assays, HPLC-MS); assay type: biochemical; details: for proteolysis rate by cathepsin B compared to other candidates: library of nine peptide-Fc substrates
From the text: A library of nine peptide substrates was examined initially for proteolysis using cathepsin B (Table S1). […] The order and amino acid sequence of the peptide substrates were designed according to the literature reported sequences with minor modifications. Among the nine peptides, three most reactive peptide substrates, i.e., H-3, H-15, and H-16 (Table 1), were selected for our studies on cathepsin B activity profiling. The peptides were designed based on literature reports and synthesized using a solid-phase microwave peptide synthesizer detailed in the Supporting Information below. For example, peptide H-15, a representative peptide, was made by the coupling of H-Ala-2-chlorotrityl resin with various N-fluorenylmethyloxycarbonyl-amino acids (N-Fmoc-amino acids) sequentially, condensing with the linker N-Boc-NH—(CH2)4—CO2H, cleavage of the peptide from the resin, re-protection of the amino group of linker, bonding with (aminomethyl)ferrocene, and removal of the protecting group.
We have designed and synthesized nine different peptide-Fc substrates containing 6-8 amino acids (listed in Table S1 below) for proteolysis by cathepsin B based on the specific recognition reported in literature and tested the cathepsin B activities on these peptide-Fc substrates by the combination of electrochemical measurements (using Au disk electrodes and VACNF nanoelectrode arrays), fluorogenic assays and HPLC-MS analysis.

cathepsin B [2] = target: T1, cathepsin B; assay: Determination of cleavage sites by HPLC-MS; assay type: biochemical; design: purchased R&D Systems Inc. (Minneapolis, MN); details: 50 mM MES pH 5.0, 250 mM NaCl, 0.17 μM cathepsin B, 2 h and 3 h
From the text: Here, the data is normalized to the value of ip0 derived from the fitting data according to eq 9. This normalization accounts for variations in I′ of the peptide-Fc substrate between each of the electrodes, and the values of ip0 and values of ip0 are listed in Table S3. […] FIG. 8b is a bar graph illustrating the differences in the measured values of 1/τ broken down by channels with H-16 (shown in blue), H-15 (shown in red) and H-3 (shown in green), similar to FIG. 8a. Here the average values of 1/τ were measured to be (8.9±1.1)×10^−4 s^−1, (6.8±1.8)×10^−4 s^−1, and (7.4±0.9)×10^−4 s^−1 for H-16, H-15 and H-3, respectively. These three peptides show similar values of 1/τ because the majority of the amino acid sequences are similar. […] For peptide H-15, all analyte solutions contained 6.5 mM peptide H-15, 50 mM MES buffer (pH 5.0) and 250 mM NaCl. Chromatograms of the peptide in the solution were then analyzed. H-15 appeared at 35.9 min in the chromatogram as verified by mass spectrometry. After incubation with cathepsin B for 2 h the cleaved fragment connected to the Fc moiety appeared at 16.0 min in the chromatogram as verified by mass spectrometry [showing a mass of 626.5 [M+23(Na)] in the mass spectrum]. A final chromatogram of peptide H-15 obtained after incubation with 5.75 ng/μL (0.17 μM) cathepsin B for 3 h confirms the cleavage site. Analyte solution for peptide H-16 was 50 mM MES (pH 5.0) and 250 mM NaCl. The hexapeptide appeared at 33.4 min in the HPLC chart and its structure was verified by mass spectrometry analysis. After treatment of hexapeptide H-16 with cathepsin B in 50 mM MES (pH 5.0) and 250 mM NaCl for 2 h the cleaved fragment appeared at 16.0 min and its structure was verified by MS analysis [showing a mass of 625.043 (M−H2+1) in the mass spectrum]. Cleavage was confirmed by incubation of 6.5 mM peptide H-16 in 50 mM MES (pH 5.0) and 250 mM NaCl incubated with 5.75 ng/μl (0.17 μM) cathepsin B for 3 h.
The cleavage sites of the hexapeptide-Fc substrates were examined using HPLC as described above. Analytical HPLC was performed with a Shimadzu SCL-10A HPLC system fitted with a proto 300 C18 reverse phase semi-prep column (10 μm, 250×10 mm). The flow rate was 1 ml/min with a gradient elution starting from 100% solvent A (water containing 0.1% TFA) to 20% solvent A and 80% solvent B (acetonitrile containing 0.1% TFA) over 50 min. The UV absorbance was monitored at 254 nm. […] The absorbance peak at ˜33.5 min was peptide H-16 and peak at 16.0 min is assigned as [Leu-Ala-Gly-Val-Ala-NH═CH-Fc]^+ (residues 2-6 of SEQ ID NO:3) (mass of 625.288). […]

| Substance | proteolysis rate by cathepsin B compared to other candidates (cathepsin B [1]) | cleavage site by cathepsin B (cathepsin B [2]) | proteolytic activity by cathepsin B among synthesized peptides (cathepsin B [1]; selected from about 30 synthesized peptides) | cleavage site by cathepsin B (cathepsin B [2]; listed as peptide-Fc) |
| --- | --- | --- | --- | --- |
| H2N-(CH2)4-CO-Pro-Leu-Ala-Gly-Val-Ala-NH-CH2-Fc ([Ava]PLAGVA-aminomethylferrocene) [Peptide H-16] | most reactive; also recorded: higher proteolysis rates | between Pro-Leu | – | – |
| H2N-(CH2)4-CO-Pro-Leu-Arg-Phe-Gly-Ala-NH-CH2-Fc ([Ava]PLRFGA-aminomethylferrocene) [Peptide H-3] | most reactive; also recorded: higher proteolysis rates | between Gly-Ala and Phe-Gly residues | – | – |
| H2N-(CH2)4-CO-Pro-Leu-Ala-Phe-Val-Ala-NH-CH2-Fc ([Ava]PLAFVA-aminomethylferrocene) [Peptide H-15] | most reactive; also recorded: higher proteolysis rates | between Leu and Ala residues | highest proteolytic activity | between Leu and Ala |
